Experimental findings from publication PMC6135645 are described below.

The target in this assay is Light-Harvesting Complex II (LHCII), trimeric (spinach (endogenous in spinach leaves)). Put plainly: native gel or EMSA; non-denaturing Clear Native PAGE (NativePAGE Novex 4-16% Bis-Tris), Coomassie staining; LHCII in α-DDM after sucrose gradient and size-exclusion chromatography.

Usually stoichiometry N stands for the number of molecules, sites or subunits per partner or assembly. In turn, “Light-Harvesting Complex II (LHCII), trimeric” displayed a stoichiometry N of 3.
